This experiment has as its target T1, PLA2 (Bovine pancreas, EC 3.1.1.4) (Bos taurus, UniProt P00593).
T1 construct: 0.18 Unit PLA2 (Bovine pancreas, EC 3.1.1.4, Sigma); purchased Sigma; host or cells: bovine pancreas
The experiment is described as follows: Inhibitory effect of synthetic peptides on PLA2 in vitro ([14C]-arachidonic acid release). In kind it is biochemical. The following applies: peptides 1×10^−8 M, preincubated 15 min at 37° C.; compared with the peptides known as PLA2 inhibitors. The source says:
It has been examined whether synthetic peptides contain inhibitory effect on PLA2 activity. A established PLA2 assay method was used to determine the enzymatic activity by measuring the release [^14C]-arachidonic acid from 1-acyl-2-[1-^14C]arachidonic acid-glycerophospho-ethanolamine (Biochem. Pharmacol. 54, 259–268, 1997). To determine the inhibitory activity, 0.18 Unit PLA2 (Bovine pancreas, EC 3.1.1.4, Sigma; 1.0 unit will hydrolyze […] of L-phosphatidylcholine to L-lysophosphatidylcholine and a fatty acid per min. at pH 8.0 at 37° C.) was preincubated for 15 minutes with the synthetic peptides (1×10^−8 M) at 37° C. in […] before adding 1-acyl-2-[1-^14C]arachidonic acid-glycerophospho-ethanolamine. The control was also PLA2 preincubated with buffer. After pre-incubation, PLA2 activity was assayed using sonicated liposomes, prepared as established method (Biochem. Biophys. Acta. 1083, 80–88, 1991). […] of 1-acyl-2-[1-^14C]arachidonic acid-glycerophospho-ethanolamine (about 2×10^5 dpm) was added in pre-incubated mixture, and incubated for 1 hr at 37° C. […]
For inhibitory test of the peptides given, each value is the mean of data from three separate experiments (S.D.<10%). The value of PLA2 activity incubated without peptides was determined as 100% PLA2 activity that is 5.57 pmole arachidonyl/hr. % Inhibition was shown in FIG. 1.

Consider two sequences from patent US7037502B2, “Peptide with the amino acid sequence of KVLDGQDP having anti-inflammatory properties” (priority 2001, dated 2006).

T1 sequence (P00593 23-145): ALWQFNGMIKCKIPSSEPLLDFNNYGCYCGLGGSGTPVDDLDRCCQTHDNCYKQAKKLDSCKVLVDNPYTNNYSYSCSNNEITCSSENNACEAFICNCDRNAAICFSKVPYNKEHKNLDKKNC

Consider “KVLDGQDP [Peptide R2, synthetic peptide of the invention]”, for which the “PLA2 activity (FIG. 1), result in words” value is on record as “significantly reduced”. Consider “KVLDPVKG [Peptide R1, synthetic peptide of the invention]”, for which the “PLA2 activity (FIG. 1), result in words” value is recorded as “significantly reduced”.
